Experimental data from patent US20260042850A1 (LOCKBODY THERAPEUTICS, published 2026).
Changes are numbered by the printed parent chain. In names and notes the source's numbering stands.

B1: 04E10 (antibody, IgG4, V domains shown)
VH: QVQLVQSGAEVKKPGASVKVSCKASGYIFTSYTMHWVRQAPGQGLEWMGWIKPNNGSASYAQKFQGRVTMTRDTSTSTVYMELSSLRSEDTAVYYCARSEITTEEDYWGQGTLVTVSS
VL: EIVLTQSPGTLSLSPGERATLSCRASQSVDSYANSYLHWYQQKPGQAPRLLIYRGSTRESGIPDRFSGSGSGTDFTLTISRLEPEDFAVYYCQQSKSEPLTFGGGTKVEIK
B2: MH7-2 (antibody, human IgG4, V domains shown)
VH: B1 VH with I28T, W50I, K52N, N54S, N55G, A58T, S99Q, E105F
VL: B1 VL with D30S, S60T, S97E, E98S
B3: MH8 (antibody, IgG4, V domains shown)
VH: B1 VH with I28T, W50I, K52N, N54S, N55G, A58T, S99Q, E105F
VL: B1 VL with D30S, N34Q, S60T, K96G, E98S
B4: MH9 (antibody, IgG4, V domains shown)
VH: B1 VH with I28T, W50I, K52N, N54S, N55G, A58T, S99Q, E105F
VL: B1 VL with D30S, N34Q, S60T, S95Y, K96G, E98S
B5: h224G11 (humanized 224G11) (antibody, human IgG4, V domains shown)
VH: B1 VH with S31A, S57L, S59N, T76I, V79A, S85R, E89D, E105F
VL: DIVMTQSPDSLAVSLGERATINCKSSESVDSYANSFLHWYQQKPGQPPKLLIYRASTRESGVPDRFSGSGSGTDFTLTISSLQAEDVAVYYCQQSKEDPLTFGGGTKVEIK
notes: also called Humanized h224G11; 224G11 IgG4(S228P)

What was measured:
[1] = molecular target: T1, human C-MET on stably transfected CHO-K1 cells (human, UniProt P08581 25-1390); experiment: flow cytometry, C-MET CHO-K1 cells
T1 construct: also called hucMET; human C-MET+ CHO-K1 cells
Procedure: (§1) Purified IgGs were tested in FACs for binding to human and cyno C-MET expressed on CHO-K1 stable cell lines and CHO-K1 wild-type cells. The IgG samples were titrated in three-fold serial dilutions starting at 500 nM to 0.08 nM. Binding of IgGs was detected with a mouse anti-human IgG conjugated to FITC. Results were analyzed by examining the Mean Fluorescence Intensity (MFI) of 10000 cells per sample in the BL-1 channel detector of a flow cytometer (Attune™ NxT Acoustic Focusing Cytometer, Invitrogen/ThermoFisher Scientific).
(§2) Antibodies to C-MET were analysed for concentration-dependent binding at the cell surface via flow cytometry. CHO-K1 cells were stably transfected with either human or cyno C-MET full-length cDNAs. Anti-C-MET IgGs and an isotype control IgG4(S228P) were then all tested in IgG4(S228P) format, over a concentration range of 500-0.08 nM for binding to human (FIG. 5A) and cyno (FIG. 5B) CHO-K1 cells.

[2] = molecular target: T2, cynomolgus monkey C-MET on stably transfected CHO-K1 cells (cynomolgus monkey, UniProt A0M8R7 25-1381 (Papio anubis entry)); experiment: flow cytometry, C-MET CHO-K1 cells
T2 construct: also called cycMET; cyno C-MET+ CHO-K1 cells
Procedure: as §1, §2

[3] = molecular target: T1, human C-MET on stably transfected …; experiment: flow cytometry, C-MET CHO-K1 cells; remark: listed apart in the source
Procedure: as §1

[4] = molecular target: T2, cynomolgus monkey C-MET on stably …; experiment: flow cytometry, C-MET CHO-K1 cells; remark: listed apart in the source
Procedure: as §1

[5] = molecular target: T3, human C-MET His tagged, monomeric (human, UniProt P08581 25-932); experiment: SPR Biacore, IgG captured, monomeric C-MET-His analyte
T3 construct: also called monomeric human C-MET; biotinylated human C-MET-His
Procedure: (§3) Affinity (KD) of purified IgGs was determined via SPR with antigen in-solution on a Biacore® 3000 (GE). A mouse anti-human antibody (CH1 specific) was immobilized on a CM5 Sensor Chip to a level of 2000 RU in acetate buffer at pH 4.5 using amine coupling following the Wizard instructions for two channels. One channel was used for background signal correction. The standard running buffer HBS-EP pH 7.4 was used. Regeneration was performed with a single injection of 10 μl of 10 mM Glycine at pH 1.5 at 20 μl/minute. IgG samples were injected for 2 minutes at 50 nM at 30 μl/min followed by and off-rate of 60 seconds. The monomeric antigen (human C-MET His tagged or cynomolgus monkey C-MET His tag) was injected in two fold serial dilutions from 100 nM down to 6 nM, for 2 minutes at 30 μl/min followed by an off-rate of 300 seconds. The obtained sensorgrams were analysed using the Biacore® 3000 evaluation (BIAevaluation) software. The KD was calculated by simultaneous fitting of the association and dissociation phases to a 1:1 Langmuir binding model.

[6] = molecular target: T4, cynomolgus monkey C-MET His tag, monomeric (cynomolgus monkey, UniProt A0M8R7 25-932 (Papio anubis entry)); experiment: as above
T4 construct: also called monomeric cyno C-MET; cyCMET
Procedure: as §3

[7] = molecular target: T3, human C-MET His tagged, monomeric; experiment: Alphascreen epitope competition in solution: varied IgG4(S228P) against 224G11 IgG4(S228P) binding to biotinylated human C-MET, CPS
Procedure: (§4) FIG. 4. Epitope competition analysis of IgG4(S228P) proteins in Alphascreen. Anti-C-MET IgG4(S228P) clones were applied in an epitope competition assay using Alphascreen technology. In this assay, library-derived and designer IgGs were analysed for their retention of the parental 224G11 epitope by competing for 224G11 IgG4(S228P) binding to human C-MET protein, in solution.
(§5) The AlphaScreen assay (Perkin Elmer) was performed in a 25 μl final volume in 384-well white microtiter plates (Greiner). The reaction buffer contained 1×PBS pH 7.3 (Oxoid, Cat. nr. BR0014G) and 0.05% (v/v) Tween® 20 (Sigma, Cat. nr. P9416). Purified IgG samples were titrated in three fold serial dilutions starting at 50 nM final concentration and incubated with biotinylated human C-MET-His (Acrobiosystems) at 1 nM final concentration for 20 minutes at room temperature. The parental IgG and the anti-human IgG4(S228P) Acceptor beads at were added and the mix was incubated for 1 hour at room temperature. Followed by addition of the Streptavidin Donor beads and incubation for 30 minutes at room temperature. The emission of light was measured in the EnVision multilabel plate reader (Perkin Elmer) and analysed using the EnVision manager software. Values were reported as Counts Per Second (CPS) and corrected for crosstalk.

Insulin = molecular target: T5, Insulin; experiment: polyreactivity ELISA on insulin; design: scale not given here
T5 construct: Coated surface of the polyreactivity (development risk) ELISA

[8] = molecular target: T6, cynomolgus monkey C-MET human Fc tagged recombinant protein (cynomolgus monkey, UniProt A0M8R7 25-932 (Papio anubis entry), limits assumed); experiment: direct titration ELISA on coated cyno C-MET-Fc, IgG4(S228P), OD 450 nm
T6 construct: also called cyno C-MET-Fc; cyCMET
Source text: (§6) FIG. 6A-FIG. 6B. Direct titration ELISA for IgG binding to human and cyno C-MET-Fc proteins. Humanized h224G11, Grafted clone (Graft) and clones 08G07, MH7, MH7-1, MH7-2, MH7-3 in human IgG4(S228P) format were titrated (in nM) in a direct binding ELISA against human (FIG. 6A) and cyno (FIG. 6B) C-MET-Fc proteins.
(§7) Binding and cross-reactivity of the lead panel to the recombinant proteins was initially assessed by binding ELISA. The human C-MET human Fc tagged recombinant protein and the cynomolgus monkey C-MET human Fc tagged recombinant protein were coated to the surface of MaxiSorp™ flat-bottom 96 well plate at 1 μg/ml. The purified IgG samples were titrated in two fold serial dilutions starting from 500 nM to 0.98 nM and allowed to bind to the coated antigens. The Fabs were detected using mouse anti-c-myc antibody followed by donkey anti-mouse IgG conjugated to horseradish peroxidase. The IgGs were detected using the mouse anti-human IgG conjugated to horseradish peroxidase. Binding signals were visualized with 3,3′,5,5′-Tetramethylbenzidine Substrate Solution (TMB) and the absorbance measured at 450 nm. IgG binding analysis via ELISA on negatively charged biomolecular surfaces to calculate off-target binding and PK risk were performed as previously described (see Avery et al., 2018, MAbs 10 (2), 244-255).

[9] = molecular target: T7, human C-MET human Fc tagged recombinant protein (human, UniProt P08581 25-932); experiment: direct titration ELISA on coated human C-MET-Fc, IgG4(S228P), OD 450 nm
T7 construct: also called human C-MET-Fc; huCMET
Source text: as §6, §7

[10] = molecular target: T2, cynomolgus monkey C-MET on stably …; experiment: flow cytometry on cyno C-MET-transfected CHO-K1 cells, IgG4(S228P), MFI
Procedure: FIG. 8A-FIG. 8C. Flow cytometric binding to human and cyno C-MET+ CHO-K1 cells for library-derived and primary designer leads. Humanized h224G11, Grafted clone (Graft) and clones 08G07, MH7, MH7-1, MH7-2, MH7-3 in human IgG4(S228P) format were examined for specific binding on human C-MET-transfected (FIG. 8A), cyno C-MET-transfected (FIG. 8B) and untransfected (FIG. 8C) CHO-K1 cells. IgGs were tested at concentrations ranging from 500-0.08 nM. Concentration-dependent binding was observed against both human and cyno cell lines for all C-MET-specific antibodies but not isotype control IgG4.
as §1

[11] = molecular target: T3, human C-MET His tagged, monomeric; experiment: SPR Biacore
Procedure: as §3

[12] = molecular target: T4, cynomolgus monkey C-MET His tag, …; experiment: SPR Biacore
Procedure: as §3

[13] = molecular target: T3, human C-MET His tagged, monomeric; experiment: Alphascreen epitope competition in solution: varied IgG4(S228P) against 224G11 IgG4(S228P) binding to biotinylated human C-MET, CPS (crosstalk-corrected)
Procedure: as §4, with “7.” for “4.”, “Anti-Humanized h224G11, Grafted clone (Graft) and clones 08G07, MH7, MH7-1, MH7-2, MH7-3 in human” for “Anti-C-MET”, “format” for “clones”, “titrated (in nM)” for “applied”
as §5, with “crosstalk. […]” for “crosstalk.”

T1 sequence (P08581 25-1390 limits assumed): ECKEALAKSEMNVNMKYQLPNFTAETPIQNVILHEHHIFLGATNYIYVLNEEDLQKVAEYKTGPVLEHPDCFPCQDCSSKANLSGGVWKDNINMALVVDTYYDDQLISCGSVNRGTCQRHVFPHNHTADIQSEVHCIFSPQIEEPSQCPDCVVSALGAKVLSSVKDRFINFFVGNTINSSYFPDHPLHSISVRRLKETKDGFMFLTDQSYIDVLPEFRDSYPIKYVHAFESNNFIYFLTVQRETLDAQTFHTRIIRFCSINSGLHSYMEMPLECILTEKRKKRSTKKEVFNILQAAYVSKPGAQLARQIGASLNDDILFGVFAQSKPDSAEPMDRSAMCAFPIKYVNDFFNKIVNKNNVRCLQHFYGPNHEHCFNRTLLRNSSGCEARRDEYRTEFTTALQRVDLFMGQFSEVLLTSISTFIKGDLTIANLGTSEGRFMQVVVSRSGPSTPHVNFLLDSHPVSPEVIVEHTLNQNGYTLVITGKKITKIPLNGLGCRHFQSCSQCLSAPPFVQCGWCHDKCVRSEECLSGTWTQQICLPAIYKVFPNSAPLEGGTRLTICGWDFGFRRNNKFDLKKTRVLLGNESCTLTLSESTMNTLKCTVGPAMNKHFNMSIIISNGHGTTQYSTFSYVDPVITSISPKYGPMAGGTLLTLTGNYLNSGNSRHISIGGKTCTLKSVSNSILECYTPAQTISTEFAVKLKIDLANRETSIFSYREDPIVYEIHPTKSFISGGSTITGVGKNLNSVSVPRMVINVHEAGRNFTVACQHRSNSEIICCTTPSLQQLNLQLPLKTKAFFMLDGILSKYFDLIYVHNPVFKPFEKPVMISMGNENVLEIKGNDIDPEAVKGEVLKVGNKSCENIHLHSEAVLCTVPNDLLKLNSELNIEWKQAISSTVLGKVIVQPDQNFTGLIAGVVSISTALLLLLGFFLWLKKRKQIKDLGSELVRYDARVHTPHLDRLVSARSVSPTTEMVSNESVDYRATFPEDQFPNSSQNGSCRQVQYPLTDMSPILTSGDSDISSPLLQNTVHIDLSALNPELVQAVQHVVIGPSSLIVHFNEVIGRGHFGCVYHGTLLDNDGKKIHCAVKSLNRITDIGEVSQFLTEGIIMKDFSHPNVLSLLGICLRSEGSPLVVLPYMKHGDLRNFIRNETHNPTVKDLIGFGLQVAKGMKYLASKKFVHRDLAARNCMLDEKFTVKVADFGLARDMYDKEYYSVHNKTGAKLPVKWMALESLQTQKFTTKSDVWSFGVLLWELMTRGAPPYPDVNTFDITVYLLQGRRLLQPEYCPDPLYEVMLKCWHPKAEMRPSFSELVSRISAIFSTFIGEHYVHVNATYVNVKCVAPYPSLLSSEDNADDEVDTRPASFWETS
T2 sequence (A0M8R7 25-1381 S170N/I621T limits assumed): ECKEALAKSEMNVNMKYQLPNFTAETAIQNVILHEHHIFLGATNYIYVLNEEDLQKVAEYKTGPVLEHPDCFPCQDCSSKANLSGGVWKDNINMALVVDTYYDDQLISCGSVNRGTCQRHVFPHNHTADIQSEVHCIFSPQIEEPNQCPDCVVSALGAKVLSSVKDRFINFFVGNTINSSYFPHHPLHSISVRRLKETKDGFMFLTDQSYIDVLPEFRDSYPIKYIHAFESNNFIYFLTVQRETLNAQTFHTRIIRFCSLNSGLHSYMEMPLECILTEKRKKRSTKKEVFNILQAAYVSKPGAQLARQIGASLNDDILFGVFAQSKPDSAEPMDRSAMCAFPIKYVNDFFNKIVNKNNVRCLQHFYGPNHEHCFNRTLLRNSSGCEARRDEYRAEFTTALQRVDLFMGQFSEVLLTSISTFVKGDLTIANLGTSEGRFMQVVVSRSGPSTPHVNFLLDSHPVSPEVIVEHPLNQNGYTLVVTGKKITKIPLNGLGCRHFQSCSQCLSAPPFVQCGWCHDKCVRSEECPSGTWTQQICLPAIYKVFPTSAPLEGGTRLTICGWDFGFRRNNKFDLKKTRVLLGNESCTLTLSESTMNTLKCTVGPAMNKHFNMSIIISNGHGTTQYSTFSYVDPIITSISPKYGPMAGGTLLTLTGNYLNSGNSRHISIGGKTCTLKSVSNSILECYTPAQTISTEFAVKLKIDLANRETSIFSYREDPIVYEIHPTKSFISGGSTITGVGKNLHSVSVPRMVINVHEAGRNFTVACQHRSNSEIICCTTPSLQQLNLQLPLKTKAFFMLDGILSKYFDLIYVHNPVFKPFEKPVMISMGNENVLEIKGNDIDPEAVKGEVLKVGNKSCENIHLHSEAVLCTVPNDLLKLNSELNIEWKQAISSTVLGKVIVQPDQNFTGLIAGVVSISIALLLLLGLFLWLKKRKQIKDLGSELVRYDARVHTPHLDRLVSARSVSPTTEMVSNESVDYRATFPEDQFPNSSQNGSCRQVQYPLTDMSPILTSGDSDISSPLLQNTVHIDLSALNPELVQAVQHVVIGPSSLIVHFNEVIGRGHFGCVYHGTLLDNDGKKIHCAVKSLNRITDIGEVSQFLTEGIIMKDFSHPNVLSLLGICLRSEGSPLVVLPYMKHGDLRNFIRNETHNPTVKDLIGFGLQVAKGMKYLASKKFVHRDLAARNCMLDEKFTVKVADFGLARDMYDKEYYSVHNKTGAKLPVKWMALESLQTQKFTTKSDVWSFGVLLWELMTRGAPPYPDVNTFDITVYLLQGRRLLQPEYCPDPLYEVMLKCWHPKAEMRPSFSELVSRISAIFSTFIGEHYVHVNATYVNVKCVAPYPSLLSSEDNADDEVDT
T3 sequence (P08581 25-932): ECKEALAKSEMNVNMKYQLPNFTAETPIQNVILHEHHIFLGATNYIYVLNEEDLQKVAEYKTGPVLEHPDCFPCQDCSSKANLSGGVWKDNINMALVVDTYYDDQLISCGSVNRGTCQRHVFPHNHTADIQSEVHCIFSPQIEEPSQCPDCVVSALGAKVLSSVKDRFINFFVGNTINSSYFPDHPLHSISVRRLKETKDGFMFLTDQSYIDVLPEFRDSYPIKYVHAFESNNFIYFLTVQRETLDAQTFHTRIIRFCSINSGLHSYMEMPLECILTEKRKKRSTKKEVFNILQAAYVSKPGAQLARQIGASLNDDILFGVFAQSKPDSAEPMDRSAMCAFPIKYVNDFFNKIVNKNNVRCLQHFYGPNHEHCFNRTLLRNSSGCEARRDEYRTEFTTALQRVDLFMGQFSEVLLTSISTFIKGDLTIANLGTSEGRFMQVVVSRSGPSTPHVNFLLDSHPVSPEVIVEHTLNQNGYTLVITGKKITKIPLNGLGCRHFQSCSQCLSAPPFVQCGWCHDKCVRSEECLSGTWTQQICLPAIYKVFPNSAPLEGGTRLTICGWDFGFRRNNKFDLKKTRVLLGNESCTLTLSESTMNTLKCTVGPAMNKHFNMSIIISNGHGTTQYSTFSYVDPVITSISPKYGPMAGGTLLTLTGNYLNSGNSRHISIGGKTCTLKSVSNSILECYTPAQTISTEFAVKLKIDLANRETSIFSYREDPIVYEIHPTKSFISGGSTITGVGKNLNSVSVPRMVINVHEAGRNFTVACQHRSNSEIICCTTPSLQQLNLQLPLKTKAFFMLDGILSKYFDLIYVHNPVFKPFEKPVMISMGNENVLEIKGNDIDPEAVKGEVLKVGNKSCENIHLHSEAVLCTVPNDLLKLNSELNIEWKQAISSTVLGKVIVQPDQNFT
T4 sequence (A0M8R7 25-932 S170N/I621T): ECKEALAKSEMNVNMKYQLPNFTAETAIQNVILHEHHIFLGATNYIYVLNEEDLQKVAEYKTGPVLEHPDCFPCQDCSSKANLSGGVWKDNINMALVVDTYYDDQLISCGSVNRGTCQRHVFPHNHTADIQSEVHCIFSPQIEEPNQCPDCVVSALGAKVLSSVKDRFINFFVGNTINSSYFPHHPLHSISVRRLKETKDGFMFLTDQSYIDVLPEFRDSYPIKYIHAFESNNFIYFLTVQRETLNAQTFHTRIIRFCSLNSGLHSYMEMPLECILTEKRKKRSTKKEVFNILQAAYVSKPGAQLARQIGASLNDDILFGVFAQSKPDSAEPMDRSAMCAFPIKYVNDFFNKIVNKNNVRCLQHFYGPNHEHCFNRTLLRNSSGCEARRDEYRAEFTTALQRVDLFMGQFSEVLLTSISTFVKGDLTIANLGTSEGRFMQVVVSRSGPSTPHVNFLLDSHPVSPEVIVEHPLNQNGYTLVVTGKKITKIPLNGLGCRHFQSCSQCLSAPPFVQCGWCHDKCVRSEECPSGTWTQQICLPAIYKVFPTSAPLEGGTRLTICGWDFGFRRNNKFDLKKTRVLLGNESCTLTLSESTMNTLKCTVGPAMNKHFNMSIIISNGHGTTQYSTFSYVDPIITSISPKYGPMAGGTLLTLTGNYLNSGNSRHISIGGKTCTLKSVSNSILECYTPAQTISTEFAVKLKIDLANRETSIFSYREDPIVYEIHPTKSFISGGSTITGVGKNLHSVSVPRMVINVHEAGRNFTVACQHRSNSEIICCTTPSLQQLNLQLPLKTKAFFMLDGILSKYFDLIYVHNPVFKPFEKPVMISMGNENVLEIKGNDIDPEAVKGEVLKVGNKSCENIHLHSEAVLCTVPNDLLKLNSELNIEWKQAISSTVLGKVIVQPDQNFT
T7 sequence (P08581 25-932 limits assumed): as the sequence (P08581 25-932) above
T5 sequence (P01308 25-54, chain 1 of 2): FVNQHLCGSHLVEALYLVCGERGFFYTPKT
T5 sequence (P01308 90-110, chain 2 of 2): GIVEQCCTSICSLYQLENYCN
T6 sequence (A0M8R7 25-932 S170N/I621T limits assumed): as the sequence (A0M8R7 25-932 S170N/I621T) above

| Binder | maximum MFI, fold over Isotype IgG4 background [1] [fold] | maximum MFI, fold over Isotype IgG4 background [2] [fold] | EC50 [3] [nM] | EC50 [4] [nM] | Kd [5] [nM] | koff [5] [s⁻¹] | kon [5] [M⁻¹ s⁻¹] | Kd [6] [nM] | koff [6] [s⁻¹] | kon [6] [M⁻¹ s⁻¹] | IC50 (read off the curve) [7] [nM] | reactivity score (Insulin) | EC50 (read off the curve) [8] [nM] | EC50 (read off the curve) [9] [nM] | EC50 (read off the curve) [10] [nM] | fold loss of KD against MH7 [11] [fold] | fold loss of KD against MH7 [12] [fold] | IC50 (read off the curve) [13] [nM] |
| --- | --- | --- | --- | --- | --- | --- | --- | --- | --- | --- | --- | --- | --- | --- | --- | --- | --- | --- |
| B1 | > 10 | > 10 | 9.66 | 2.94 | 1.6 | 5e-05 | 31000 | 2.2 | 0.00011 | 49000 | ~2 |  |  |  |  |  |  |  |
| B2 | > 10 | > 10 |  |  | 2.12 | 0.000198 | 93200 | 0.87 | 0.000159 | 183000 |  | 1 | ~0.2 | ~0.3 | ~0.5 |  |  |  |
| B3 | > 10 | > 10 | 1.24 | 0.57 | 2.2 | 0.00015 | 66000 | 1.3 | 0.00021 | 160000 |  |  |  |  |  | 10 to 20 | 10 to 20 |  |
| B4 | > 10 | > 10 | 1.23 | 0.65 | 6.6 | 0.00039 | 59000 | 4.3 | 0.00048 | 110000 |  |  |  |  |  | 10 to 20 | 10 to 20 |  |
| B5 | > 10 | > 10 | 6.83 | 0.82 | 0.47 | 4.2e-05 | 90000 | 0.46 | 0.00011 | 250000 |  | 1 | ~0.2 | ~0.3 | ~0.7 |  |  | ~0.2 |
